Source: PMC11909895

Columns and labels:
[1] = target: beta-Nrxn1ΔC, C-terminal truncated mutant beta-Nrxn1 (-AS4); assay: co-IP; HA antibody (clone 3F10) and Protein-G Sepharose from striatum lysates of adult control and beta-Nrxn1ΔC mice; lysis buffer 20 mM Tris-HCl pH 7.5, 100 mM NaCl, 5 mM MgCl2, 5 mM CaCl2, 1% Triton X-100; blots for Nlgn1, Nlgn2, Nlgn3, LRRTM2
[2] = target: beta-Nrxn1ΔC, C-terminal truncated mutant beta-Nrxn1 (-AS4); assay: co-IP; HA antibody (clone 3F10) and Protein-G Sepharose from cortex lysates of adult control and beta-Nrxn1ΔC mice (untreated, or DOX 14 days then 30 days re-expression); lysis buffer 20 mM Tris-HCl pH 7.5, 100 mM NaCl, 5 mM MgCl2, 5 mM CaCl2, 1% Triton X-100; blots for Nlgn1, Nlgn2, Nlgn3, LRRTM2

Substance: Nlgn1 (neuroligin-1) (from UniProt Q99K10 46-843) (natural protein)
- Nlgn1 levels in the co-immunoprecipitates as percentage of total Nlgn1 in the initial lysates [1]: 1.74%
- Nlgn1 levels in the co-immunoprecipitates as percentage of total Nlgn1 in the initial lysates [2]: 5.01%
